The source of these data is IntAct's records for PubMed 29039417.

B1: BBSome complex member BBS1 (Homo sapiens), Q8NFJ9 (parent)
chain: MAAASSSDSDACGAESNEANSKWLDAHYDPMANIHTFSACLALADLHGDGEYKLVVGDLGPGGQQPRLKVLKGPLVMTESPLPALPAAAATFLMEQHEPRTPALALASGPCVYVYKNLRPYFKFSLPQLPPNPLEQDLWNQAKEDRIDPLTLKEMLESIRETAEEPLSIQSLRFLQLELSEMEAFVNQHKSNSIKRQTVITTMTTLKKNLADEDAVSCLVLGTENKELLVLDPEAFTILAKMSLPSVPVFLEVSGQFDVEFRLAAACRNGNIYILRRDSKHPKYCIELSAQPVGLIRVHKVLVVGSTQDSLHGFTHKGKKLWTVQMPAAILTMNLLEQHSRGLQAVMAGLANGEVRIYRDKALLNVIHTPDAVTSLCFGRYGREDNTLIMTTRGGGLIIKILKRTAVFVEGGSEVGPPPAQAMKLNVPRKTRLYVDQTLREREAGTAMHRAFQTDLYLLRLRAARAYLQALESSLSPLSTTAREPLKLHAVVQGLGPTFKLTLHLQNTSTTRPVLGLLVCFLYNEALYSLPRAFFKVPLLVPGLNYPLETFVESLSNKGISDIIKVLVLREGQSAPLLSAHVNMPGSEGLAAA
partner: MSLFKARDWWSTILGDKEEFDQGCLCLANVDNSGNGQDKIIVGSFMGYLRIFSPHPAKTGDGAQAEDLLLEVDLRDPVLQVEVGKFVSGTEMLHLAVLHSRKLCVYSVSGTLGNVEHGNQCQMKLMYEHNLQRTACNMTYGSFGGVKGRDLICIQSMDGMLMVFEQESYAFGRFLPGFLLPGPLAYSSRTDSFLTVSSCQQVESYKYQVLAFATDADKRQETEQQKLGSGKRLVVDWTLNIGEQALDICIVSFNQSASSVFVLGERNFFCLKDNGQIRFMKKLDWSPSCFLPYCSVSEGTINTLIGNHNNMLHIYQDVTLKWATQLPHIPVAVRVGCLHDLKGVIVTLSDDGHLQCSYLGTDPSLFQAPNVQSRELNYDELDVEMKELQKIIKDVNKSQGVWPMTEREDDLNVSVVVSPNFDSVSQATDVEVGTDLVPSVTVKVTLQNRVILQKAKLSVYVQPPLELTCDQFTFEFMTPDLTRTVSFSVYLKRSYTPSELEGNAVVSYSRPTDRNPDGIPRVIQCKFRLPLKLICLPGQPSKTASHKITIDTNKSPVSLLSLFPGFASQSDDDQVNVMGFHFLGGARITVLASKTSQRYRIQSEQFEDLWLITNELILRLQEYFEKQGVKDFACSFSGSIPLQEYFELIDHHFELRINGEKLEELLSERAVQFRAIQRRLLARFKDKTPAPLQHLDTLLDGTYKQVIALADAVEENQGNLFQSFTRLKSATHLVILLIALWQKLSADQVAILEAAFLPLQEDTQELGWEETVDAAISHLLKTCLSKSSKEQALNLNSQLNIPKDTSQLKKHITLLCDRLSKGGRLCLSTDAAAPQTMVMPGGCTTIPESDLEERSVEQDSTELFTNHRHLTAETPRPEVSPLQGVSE

The variants in the first experiment derive from B1. The following applies: with pthb1_human BBS9, Q3SYG4.
Consider L505A, for which the “effect of a mutation on the interaction” value is reported as “with no effect”.

In the case of L518A, the “effect of a mutation on the interaction” value is given as “with no effect”.

For the variant L503K, the “effect of a mutation on the interaction” value was “disrupting interaction strength”.

As for L503E, the “effect of a mutation on the interaction” value is on record as “disrupting interaction strength”.

Take L503A: the “effect of a mutation on the interaction” value is “with no effect”.

On to L495K, for which the “effect of a mutation on the interaction” value was “with no effect”.

Regarding L495E, the “effect of a mutation on the interaction” value was “with no effect”.

Consider L495A, for which the “effect of a mutation on the interaction” value is on record as “with no effect”.

As to P497A, the “effect of a mutation on the interaction” value is given as “with no effect”.

As for P497K, the “effect of a mutation on the interaction” value was “with no effect”.

P497E: the “effect of a mutation on the interaction” value was “with no effect”.

As for P477K, the “effect of a mutation on the interaction” value is listed as “with no effect”.

With P477A, the “effect of a mutation on the interaction” value is on record as “with no effect”.

Take P477E: the “effect of a mutation on the interaction” value is recorded as “with no effect”.

In the case of Q469E, the “effect of a mutation on the interaction” value is recorded as “with no effect”.

Take Q469A: the “effect of a mutation on the interaction” value is recorded as “with no effect”.

With Q469K, the “effect of a mutation on the interaction” value is given as “with no effect”.

As to A464E, the “effect of a mutation on the interaction” value is “with no effect”.

With A464K, the “effect of a mutation on the interaction” value is recorded as “with no effect”.

Consider V491K, for which the “effect of a mutation on the interaction” value is reported as “with no effect”.

Take V491E: the “effect of a mutation on the interaction” value was “with no effect”.

For the variant V491A, the “effect of a mutation on the interaction” value is reported as “with no effect”.

Regarding K487E, the “effect of a mutation on the interaction” value was “with no effect”.

For K487A, the “effect of a mutation on the interaction” value was “with no effect”.

Regarding L468E, the “effect of a mutation on the interaction” value is listed as “with no effect”.

On to L468A, for which the “effect of a mutation on the interaction” value is on record as “with no effect”.

As to L468K, the “effect of a mutation on the interaction” value is reported as “with no effect”.

Consider P485K, for which the “effect of a mutation on the interaction” value is “with no effect”.

For P485E, the “effect of a mutation on the interaction” value is on record as “with no effect”.

Regarding P485A, the “effect of a mutation on the interaction” value was “with no effect”.

Turning to L486A, the “effect of a mutation on the interaction” value is on record as “with no effect”.

Regarding L486K, the “effect of a mutation on the interaction” value was “disrupting interaction strength”.

On to L486E, for which the “effect of a mutation on the interaction” value was “disrupting interaction strength”.

As to L517E, the “effect of a mutation on the interaction” value is recorded as “disrupting interaction strength”.

L517K: the “effect of a mutation on the interaction” value is “disrupting interaction strength”.

For L517A, the “effect of a mutation on the interaction” value is on record as “with no effect”.

Regarding S479K, the “effect of a mutation on the interaction” value is listed as “with no effect”.

Regarding S479A, the “effect of a mutation on the interaction” value is “with no effect”.

With S479E, the “effect of a mutation on the interaction” value is recorded as “with no effect”.

As for L475E, the “effect of a mutation on the interaction” value is on record as “with no effect”.

As to L475A, the “effect of a mutation on the interaction” value is recorded as “with no effect”.

With L475K, the “effect of a mutation on the interaction” value was “with no effect”.

On to A466K, for which the “effect of a mutation on the interaction” value is listed as “with no effect”.

As to A466E, the “effect of a mutation on the interaction” value was “with no effect”.

Take T511A: the “effect of a mutation on the interaction” value is recorded as “with no effect”.

Regarding T511K, the “effect of a mutation on the interaction” value is “with no effect”.

For T511E, the “effect of a mutation on the interaction” value is reported as “with no effect”.

As for L488A, the “effect of a mutation on the interaction” value is recorded as “with no effect”.

L488E: the “effect of a mutation on the interaction” value was “with no effect”.

Regarding L488K, the “effect of a mutation on the interaction” value is listed as “with no effect”.

On to T508E, for which the “effect of a mutation on the interaction” value is recorded as “with no effect”.

Consider T508K, for which the “effect of a mutation on the interaction” value was “with no effect”.

In the case of T508A, the “effect of a mutation on the interaction” value is listed as “with no effect”.

With F499E, the “effect of a mutation on the interaction” value is “disrupting interaction strength”.

For F499K, the “effect of a mutation on the interaction” value is listed as “with no effect”.

In the case of F499A, the “effect of a mutation on the interaction” value was “with no effect”.

As to L515K, the “effect of a mutation on the interaction” value is listed as “with no effect”.

For L515E, the “effect of a mutation on the interaction” value is recorded as “with no effect”.

As for L515A, the “effect of a mutation on the interaction” value is recorded as “with no effect”.

With S476E, the “effect of a mutation on the interaction” value was “with no effect”.

Turning to S476K, the “effect of a mutation on the interaction” value is given as “with no effect”.

As to S476A, the “effect of a mutation on the interaction” value is “with no effect”.

As to T498E, the “effect of a mutation on the interaction” value is reported as “with no effect”.

On to T498K, for which the “effect of a mutation on the interaction” value was “with no effect”.

For the variant T498A, the “effect of a mutation on the interaction” value is “with no effect”.

L501A: the “effect of a mutation on the interaction” value was “disrupting interaction strength”.

In the case of L501K, the “effect of a mutation on the interaction” value is given as “disrupting interaction strength”.

Take L501E: the “effect of a mutation on the interaction” value is “disrupting interaction strength”.

Regarding Y467K, the “effect of a mutation on the interaction” value is recorded as “with no effect”.

In the case of Y467A, the “effect of a mutation on the interaction” value was “with no effect”.

As to Y467E, the “effect of a mutation on the interaction” value is given as “with no effect”.

As to V514E, the “effect of a mutation on the interaction” value is recorded as “with no effect”.

For the variant V514A, the “effect of a mutation on the interaction” value is recorded as “with no effect”.

For V514K, the “effect of a mutation on the interaction” value is given as “with no effect”.

For L458K, the “effect of a mutation on the interaction” value is given as “with no effect”.

On to L458A, for which the “effect of a mutation on the interaction” value is “with no effect”.

For L458E, the “effect of a mutation on the interaction” value was “with no effect”.

Regarding E484A, the “effect of a mutation on the interaction” value is recorded as “with no effect”.

Regarding E484K, the “effect of a mutation on the interaction” value is recorded as “with no effect”.

With N507A, the “effect of a mutation on the interaction” value is given as “with no effect”.

For the variant N507E, the “effect of a mutation on the interaction” value was “disrupting interaction strength”.

As for N507K, the “effect of a mutation on the interaction” value is given as “with no effect”.

Regarding R462K, the “effect of a mutation on the interaction” value is reported as “with no effect”.

R462A: the “effect of a mutation on the interaction” value was “with no effect”.

With R462E, the “effect of a mutation on the interaction” value is recorded as “with no effect”.

Take P513A: the “effect of a mutation on the interaction” value is given as “with no effect”.

Turning to P513E, the “effect of a mutation on the interaction” value is “with no effect”.

As to P513K, the “effect of a mutation on the interaction” value was “with no effect”.

In a further experiment the parent is B1. The following applies: with pthb1_human BBS9, Q3SYG4. This is another data set of the same source.
Turning to N507E, the “effect of a mutation on the interaction” value was “with no effect”.
